According to the supplement of paper PMC10065799, “High-throughput profiling of sequence recognition by tyrosine kinases and SH2 domains using bacterial peptide display” (eLife, 2023):
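Note: 11-residue human phosphosite peptides and single-mutation variants displayed on the E. coli surface, counted by deep sequencing, each peptide's frequency after selection divided by its frequency in the unselected input library; frequency after pTyr selection over input frequency; kinase dosed for 20-30% of maximal phosphorylation in three min.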

The sequences below were run on c-Src (assay: phosphorylation enrichment, bacterial display (enrichment ratio); higher = better substrate or ligand; peptides without Tyr show the background).
With SLFPGYNFRFA [P2RX7_Y291_YF] the phosphorylation enrichment was 0.502. In the case of SVTCTYSPALS [TP53_Y126_N131S], the phosphorylation enrichment is reported as 0.719. LQLLGHRPVYS [CHST6_Y358_Y358H] was tested, and the phosphorylation enrichment was 0.381. For TTKAKYKTPIY [PLD2_Y573_T577I], the phosphorylation enrichment was 0.541. DDDPEYRKFLE [UPF3B_Y160] showed a phosphorylation enrichment of 0.483. NFHRGYHLQVL [CD200R1L_Y138] was tested, and the phosphorylation enrichment was 0.353. SKAYAYVHFDS [PABPC5_Y149_G146A] was tested, and the phosphorylation enrichment was 0.365. For PTQLPYDHKWK [KIT_Y578_E583K], the phosphorylation enrichment was 0.425. KNKNRSKNILP [PTPN11_Y279_Y279S] showed a phosphorylation enrichment of 0.564. ARMTNCGLPRF [TSPAN12_Y138_Y138C_YF] was tested, and the phosphorylation enrichment was 0.323. With TRTEAYAVSSF the phosphorylation enrichment was 0.353. SHLEDYPFDAE [AKR1B10_Y310_N313D] was tested, and the phosphorylation enrichment was 0.462. Sequence YVGGFYGGCNE [CTSC_Y352] has a phosphorylation enrichment of 0.786. In the case of EEGESYVCSSD [DCX_Y125], the phosphorylation enrichment is reported as 0.603. Work on EERNPYYSSAR [MCCC2_Y520_G517R] yielded a phosphorylation enrichment of 1.56. In the case of GMEIVYVYVKK [DNAI2_Y5], the phosphorylation enrichment is reported as 0.632. Work on EYKDAYTFAAD [BRDT_Y335_K336T] yielded a phosphorylation enrichment of 1.29. PRAGVYPEKDQ [DNM2_Y626_L621P] was tested, and the phosphorylation enrichment was 0.682. For MSDVPYVMNRG [ACAT1_Y161_N158D], the phosphorylation enrichment was 0.439. Work on NQKGKYFNVER [ANAPC4_Y469_R465Q] yielded a phosphorylation enrichment of 0.386. STTIHYNYMCN [TP53_Y234_C229S] was tested, and the phosphorylation enrichment was 0.458. FADIAYSYRHG [PAH_Y166_N167S] showed a phosphorylation enrichment of 0.714. FSGKAYADEEQ [CRIM1_Y826_R831Q] was tested, and the phosphorylation enrichment was 0.41. DTLASYLDKVR [KRT12_Y139_R135T] showed a phosphorylation enrichment of 0.364. With KDHPDYEFQPR [SOX9_Y172_K173E_YF] the phosphorylation enrichment was 0.425. In the case of ERDYTYDELLN [EIF2S2_Y176_E177D], the phosphorylation enrichment is reported as 0.661. Work on EQLQSYQAEII [KRT33A_Y268] yielded a phosphorylation enrichment of 0.555. In the case of EARRVYRDIIH [ALDH5A1_Y175_G176R], the phosphorylation enrichment is reported as 0.41. Sequence LLVVVYKYRCY [PSEN1_Y154_L153V] has a phosphorylation enrichment of 0.662. Work on LSGVIYVILGK [PMP22_Y153_R157G] yielded a phosphorylation enrichment of 0.796. Sequence KLFFHYNPKLC [INSR_Y457] has a phosphorylation enrichment of 0.428. For LAVNPYGPPDL, the phosphorylation enrichment was 0.611. For AAVDTYCRHNF [HLA-DRB1_Y107_YF], the phosphorylation enrichment was 0.548.

These sequences were tested against FGFR3 (UniProt P22607) in the same assay as above.
FGFR3, sequence (P22607 whole entry, looked up): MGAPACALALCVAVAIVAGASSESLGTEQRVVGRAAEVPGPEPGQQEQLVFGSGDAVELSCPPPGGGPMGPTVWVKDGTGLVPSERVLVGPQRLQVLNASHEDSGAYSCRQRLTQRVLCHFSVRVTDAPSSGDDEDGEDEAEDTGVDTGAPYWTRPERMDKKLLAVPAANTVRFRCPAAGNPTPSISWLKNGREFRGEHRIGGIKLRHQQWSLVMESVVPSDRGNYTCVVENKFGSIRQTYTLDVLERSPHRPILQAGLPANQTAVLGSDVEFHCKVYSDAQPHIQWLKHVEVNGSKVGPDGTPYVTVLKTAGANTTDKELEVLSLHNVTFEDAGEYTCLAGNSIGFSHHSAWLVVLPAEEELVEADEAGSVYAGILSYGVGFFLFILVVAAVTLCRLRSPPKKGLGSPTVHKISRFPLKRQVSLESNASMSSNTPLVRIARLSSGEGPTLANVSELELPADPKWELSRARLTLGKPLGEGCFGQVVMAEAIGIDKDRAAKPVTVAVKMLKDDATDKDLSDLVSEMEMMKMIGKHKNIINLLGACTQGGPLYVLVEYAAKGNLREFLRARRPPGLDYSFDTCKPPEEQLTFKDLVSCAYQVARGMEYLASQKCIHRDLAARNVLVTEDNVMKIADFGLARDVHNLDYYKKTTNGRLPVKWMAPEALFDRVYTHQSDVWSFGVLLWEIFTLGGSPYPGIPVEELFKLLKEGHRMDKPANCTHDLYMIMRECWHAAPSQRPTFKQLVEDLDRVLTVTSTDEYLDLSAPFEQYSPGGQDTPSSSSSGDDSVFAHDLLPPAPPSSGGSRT
In the case of SLFPGYNFRFA [P2RX7_Y291_YF], the phosphorylation enrichment is reported as 0.736. For SVTCTYSPALS [TP53_Y126_N131S], the phosphorylation enrichment was 0.697. In the case of LQLLGHRPVYS [CHST6_Y358_Y358H], the phosphorylation enrichment is reported as 0.506. TTKAKYKTPIY [PLD2_Y573_T577I] was tested, and the phosphorylation enrichment was 0.596. DDDPEYRKFLE [UPF3B_Y160] gave a phosphorylation enrichment of 0.799. Sequence NFHRGYHLQVL [CD200R1L_Y138] has a phosphorylation enrichment of 0.606. In the case of SKAYAYVHFDS [PABPC5_Y149_G146A], the phosphorylation enrichment is reported as 0.803. PTQLPYDHKWK [KIT_Y578_E583K] was tested, and the phosphorylation enrichment was 0.439. With KNKNRSKNILP [PTPN11_Y279_Y279S] the phosphorylation enrichment was 0.627. In the case of ARMTNCGLPRF [TSPAN12_Y138_Y138C_YF], the phosphorylation enrichment is reported as 0.453. TRTEAYAVSSF gave a phosphorylation enrichment of 0.396. With SHLEDYPFDAE [AKR1B10_Y310_N313D] the phosphorylation enrichment was 0.714. YVGGFYGGCNE [CTSC_Y352] showed a phosphorylation enrichment of 0.962. With EEGESYVCSSD [DCX_Y125] the phosphorylation enrichment was 0.945. EERNPYYSSAR [MCCC2_Y520_G517R] showed a phosphorylation enrichment of 0.552. GMEIVYVYVKK [DNAI2_Y5] showed a phosphorylation enrichment of 1.1. EYKDAYTFAAD [BRDT_Y335_K336T] was tested, and the phosphorylation enrichment was 0.74. PRAGVYPEKDQ [DNM2_Y626_L621P] showed a phosphorylation enrichment of 0.759. MSDVPYVMNRG [ACAT1_Y161_N158D] gave a phosphorylation enrichment of 0.501. NQKGKYFNVER [ANAPC4_Y469_R465Q] was tested, and the phosphorylation enrichment was 0.469. For STTIHYNYMCN [TP53_Y234_C229S], the phosphorylation enrichment was 0.809. In the case of FADIAYSYRHG [PAH_Y166_N167S], the phosphorylation enrichment is reported as 0.508. FSGKAYADEEQ [CRIM1_Y826_R831Q] gave a phosphorylation enrichment of 0.81. Sequence DTLASYLDKVR [KRT12_Y139_R135T] has a phosphorylation enrichment of 0.415. With KDHPDYEFQPR [SOX9_Y172_K173E_YF] the phosphorylation enrichment was 0.614. Sequence ERDYTYDELLN [EIF2S2_Y176_E177D] has a phosphorylation enrichment of 0.791. EQLQSYQAEII [KRT33A_Y268] was tested, and the phosphorylation enrichment was 0.821. EARRVYRDIIH [ALDH5A1_Y175_G176R] gave a phosphorylation enrichment of 0.415. LLVVVYKYRCY [PSEN1_Y154_L153V] was tested, and the phosphorylation enrichment was 1.22. In the case of LSGVIYVILGK [PMP22_Y153_R157G], the phosphorylation enrichment is reported as 0.977. With KLFFHYNPKLC [INSR_Y457] the phosphorylation enrichment was 0.777. LAVNPYGPPDL showed a phosphorylation enrichment of 0.911. For AAVDTYCRHNF [HLA-DRB1_Y107_YF], the phosphorylation enrichment was 0.715.

What follows are sequences tested against Fes (UniProt P07332) in the same assay as above.
Fes, sequence (P07332 whole entry, looked up): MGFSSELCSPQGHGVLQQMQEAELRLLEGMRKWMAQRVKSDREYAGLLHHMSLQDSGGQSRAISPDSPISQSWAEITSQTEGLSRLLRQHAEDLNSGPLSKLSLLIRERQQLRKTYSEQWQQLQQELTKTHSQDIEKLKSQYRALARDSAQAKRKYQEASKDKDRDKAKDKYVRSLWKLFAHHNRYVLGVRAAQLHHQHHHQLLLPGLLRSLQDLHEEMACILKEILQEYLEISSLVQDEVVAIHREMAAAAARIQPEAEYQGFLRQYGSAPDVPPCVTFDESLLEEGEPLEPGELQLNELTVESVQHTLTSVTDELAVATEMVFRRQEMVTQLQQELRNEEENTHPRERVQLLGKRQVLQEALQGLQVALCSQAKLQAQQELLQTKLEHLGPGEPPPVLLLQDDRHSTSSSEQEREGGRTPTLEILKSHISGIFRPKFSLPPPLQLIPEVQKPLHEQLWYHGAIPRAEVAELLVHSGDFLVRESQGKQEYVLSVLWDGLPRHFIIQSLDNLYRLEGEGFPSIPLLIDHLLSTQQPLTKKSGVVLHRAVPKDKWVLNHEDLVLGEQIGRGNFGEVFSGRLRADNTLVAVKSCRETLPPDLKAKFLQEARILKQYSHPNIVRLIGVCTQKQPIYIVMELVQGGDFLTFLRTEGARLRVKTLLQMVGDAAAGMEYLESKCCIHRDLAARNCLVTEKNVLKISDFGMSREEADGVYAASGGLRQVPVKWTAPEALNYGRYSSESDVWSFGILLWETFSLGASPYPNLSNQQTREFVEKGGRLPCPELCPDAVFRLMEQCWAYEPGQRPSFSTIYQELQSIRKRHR
SLFPGYNFRFA [P2RX7_Y291_YF] gave a phosphorylation enrichment of 0.953. Work on SVTCTYSPALS [TP53_Y126_N131S] yielded a phosphorylation enrichment of 1.63. LQLLGHRPVYS [CHST6_Y358_Y358H] showed a phosphorylation enrichment of 0.701. TTKAKYKTPIY [PLD2_Y573_T577I] gave a phosphorylation enrichment of 0.928. With DDDPEYRKFLE [UPF3B_Y160] the phosphorylation enrichment was 1.22. NFHRGYHLQVL [CD200R1L_Y138] showed a phosphorylation enrichment of 0.835. Sequence SKAYAYVHFDS [PABPC5_Y149_G146A] has a phosphorylation enrichment of 1.19. In the case of PTQLPYDHKWK [KIT_Y578_E583K], the phosphorylation enrichment is reported as 0.677. In the case of KNKNRSKNILP [PTPN11_Y279_Y279S], the phosphorylation enrichment is reported as 0.749. ARMTNCGLPRF [TSPAN12_Y138_Y138C_YF] was tested, and the phosphorylation enrichment was 0.689. TRTEAYAVSSF was tested, and the phosphorylation enrichment was 0.816. SHLEDYPFDAE [AKR1B10_Y310_N313D] gave a phosphorylation enrichment of 1.14. Sequence YVGGFYGGCNE [CTSC_Y352] has a phosphorylation enrichment of 1.14. In the case of EEGESYVCSSD [DCX_Y125], the phosphorylation enrichment is reported as 1.41. In the case of EERNPYYSSAR [MCCC2_Y520_G517R], the phosphorylation enrichment is reported as 0.749. Sequence GMEIVYVYVKK [DNAI2_Y5] has a phosphorylation enrichment of 1.23. With EYKDAYTFAAD [BRDT_Y335_K336T] the phosphorylation enrichment was 1.09. PRAGVYPEKDQ [DNM2_Y626_L621P] showed a phosphorylation enrichment of 1.26. MSDVPYVMNRG [ACAT1_Y161_N158D] was tested, and the phosphorylation enrichment was 0.68. For NQKGKYFNVER [ANAPC4_Y469_R465Q], the phosphorylation enrichment was 0.603. With STTIHYNYMCN [TP53_Y234_C229S] the phosphorylation enrichment was 1.14. FADIAYSYRHG [PAH_Y166_N167S] showed a phosphorylation enrichment of 0.658. Sequence FSGKAYADEEQ [CRIM1_Y826_R831Q] has a phosphorylation enrichment of 1.14. Work on DTLASYLDKVR [KRT12_Y139_R135T] yielded a phosphorylation enrichment of 0.76. For KDHPDYEFQPR [SOX9_Y172_K173E_YF], the phosphorylation enrichment was 0.723. Sequence ERDYTYDELLN [EIF2S2_Y176_E177D] has a phosphorylation enrichment of 1.27. With EQLQSYQAEII [KRT33A_Y268] the phosphorylation enrichment was 1.16. With EARRVYRDIIH [ALDH5A1_Y175_G176R] the phosphorylation enrichment was 0.547. For LLVVVYKYRCY [PSEN1_Y154_L153V], the phosphorylation enrichment was 3.48. LSGVIYVILGK [PMP22_Y153_R157G] gave a phosphorylation enrichment of 2.88. KLFFHYNPKLC [INSR_Y457] gave a phosphorylation enrichment of 1.41. Sequence LAVNPYGPPDL has a phosphorylation enrichment of 1.23. For AAVDTYCRHNF [HLA-DRB1_Y107_YF], the phosphorylation enrichment was 1.04.

These sequences were tested on Fer (mouse) in the same assay as above.
In the case of SLFPGYNFRFA [P2RX7_Y291_YF], the phosphorylation enrichment is reported as 0.511. SVTCTYSPALS [TP53_Y126_N131S] gave a phosphorylation enrichment of 0.508. In the case of LQLLGHRPVYS [CHST6_Y358_Y358H], the phosphorylation enrichment is reported as 0.479. In the case of TTKAKYKTPIY [PLD2_Y573_T577I], the phosphorylation enrichment is reported as 0.459. Sequence DDDPEYRKFLE [UPF3B_Y160] has a phosphorylation enrichment of 0.478. NFHRGYHLQVL [CD200R1L_Y138] showed a phosphorylation enrichment of 0.478. SKAYAYVHFDS [PABPC5_Y149_G146A] gave a phosphorylation enrichment of 0.477. In the case of PTQLPYDHKWK [KIT_Y578_E583K], the phosphorylation enrichment is reported as 0.478. KNKNRSKNILP [PTPN11_Y279_Y279S] was tested, and the phosphorylation enrichment was 0.486. For ARMTNCGLPRF [TSPAN12_Y138_Y138C_YF], the phosphorylation enrichment was 0.352. TRTEAYAVSSF gave a phosphorylation enrichment of 0.328. For SHLEDYPFDAE [AKR1B10_Y310_N313D], the phosphorylation enrichment was 0.469. Work on YVGGFYGGCNE [CTSC_Y352] yielded a phosphorylation enrichment of 0.786. In the case of EEGESYVCSSD [DCX_Y125], the phosphorylation enrichment is reported as 0.799. Sequence EERNPYYSSAR [MCCC2_Y520_G517R] has a phosphorylation enrichment of 0.505. Sequence GMEIVYVYVKK [DNAI2_Y5] has a phosphorylation enrichment of 0.545. For EYKDAYTFAAD [BRDT_Y335_K336T], the phosphorylation enrichment was 0.555. In the case of PRAGVYPEKDQ [DNM2_Y626_L621P], the phosphorylation enrichment is reported as 0.658. In the case of MSDVPYVMNRG [ACAT1_Y161_N158D], the phosphorylation enrichment is reported as 0.42. NQKGKYFNVER [ANAPC4_Y469_R465Q] showed a phosphorylation enrichment of 0.39. With STTIHYNYMCN [TP53_Y234_C229S] the phosphorylation enrichment was 0.592. FADIAYSYRHG [PAH_Y166_N167S] gave a phosphorylation enrichment of 0.453. For FSGKAYADEEQ [CRIM1_Y826_R831Q], the phosphorylation enrichment was 0.529. Sequence DTLASYLDKVR [KRT12_Y139_R135T] has a phosphorylation enrichment of 0.304. Work on KDHPDYEFQPR [SOX9_Y172_K173E_YF] yielded a phosphorylation enrichment of 0.475. Work on ERDYTYDELLN [EIF2S2_Y176_E177D] yielded a phosphorylation enrichment of 0.506. EQLQSYQAEII [KRT33A_Y268] was tested, and the phosphorylation enrichment was 0.526. In the case of EARRVYRDIIH [ALDH5A1_Y175_G176R], the phosphorylation enrichment is reported as 0.305. For LLVVVYKYRCY [PSEN1_Y154_L153V], the phosphorylation enrichment was 1.25. LSGVIYVILGK [PMP22_Y153_R157G] gave a phosphorylation enrichment of 0.754. In the case of KLFFHYNPKLC [INSR_Y457], the phosphorylation enrichment is reported as 0.566. In the case of LAVNPYGPPDL, the phosphorylation enrichment is reported as 0.77. Sequence AAVDTYCRHNF [HLA-DRB1_Y107_YF] has a phosphorylation enrichment of 0.589.
